According to patent publication US7220822:

Target: CD80-Ig (extracellular domain of CD80 fused with the constant region of mouse IgG1 heavy chain) (mouse)
Assay: SPR, CD28-Ig (187 nM to 12 µM) over CD80-Ig captured by anti-mouse IgG1 Fc

koff: 0.563 s⁻¹
kon: 138000 M⁻¹ s⁻¹
Substance: CD28-Ig (Fc fusion)
